Patent US20120094935A1

Experiments:
[1] = target: N-terminally His-tagged form of human TNFα (residues 6-157, numbered as in PDB entry 1TNF), soluble TNFα trimer (human) (UniProt P01375); assay: crystal structure, SC program in CCP4
[2] = target: N-terminally His-tagged form of human TNFα (residues 6-157, numbered as in PDB entry 1TNF), soluble TNFα trimer (human) (UniProt P01375); assay: crystal structure, AREAIMOL with 1.4 Å probe

UniProt P01375, sequence (P01375 other isoform, or with tags, fused parts or gaps limits assumed): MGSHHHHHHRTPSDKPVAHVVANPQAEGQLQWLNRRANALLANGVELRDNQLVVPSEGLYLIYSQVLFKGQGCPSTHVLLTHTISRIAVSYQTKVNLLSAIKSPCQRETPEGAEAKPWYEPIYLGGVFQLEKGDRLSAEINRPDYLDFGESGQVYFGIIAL

## C-terminally His-tagged version of Yaba-like disease virus (YLDV) 2L lacking six C-terminal residues
[1]
  shape complementarity index SC: 0.72
[2]
  buried surface area contributed by 2L: 1030 Å^2
  total buried surface area at the 2L-TNFα interface: 2060 Å^2
